Molecular target: cis GFP: loop:s11 (light-activated truncated GFP with the 11th β-strand removed, chromophore in the cis configuration)
Experiment: absorbance spectroscopy

- Kd: < 1 pM
Substance: s11, synthetic peptide corresponding to strand 11 of GFP

Source: paper PMC3068246
